# Measured values as given in the DeepSol protein solubility set.
# Assay: soluble on expression in E. coli; label from the status in PepcDB or PDB records
row,Sequence,soluble on expression in E. coli
1,GMTYELSTDREFDLIAIGRACIDLNAVEYNRPMEETMTFSKYVGGSPANIVIGSSKLGLKAGFIGKIADDQHGRFIESYMRGVGVDTSNLVVDQEGHKTGLAFTEIKSPEECSILMYRQDVADLYLSPEEVNEAYIRRSKLLLVSGTALSKSPSREAVLKAIRLAKRNDVKVVFELDYRPYSWETPEETAVYYSLVAEQSDIVIGTREEFDVLENRTEKGDNDETIRYLFKHSPELIVIKHGVEGSFAYTKAGEAYRGYAYKTKVLKTFGAGDSYASAFLYALISGKGIETALKYGSASASIVVSKHSSSDAMPSVEEIEALIEKDETITIA,soluble
2,MTNWLIAYQGEPGAYSEIAALRFGEPLPCESFDDVFSAVTEQKADYAVIPIENSLGGSIHQNYDLLLRRPVVILAETFVKVEHCLLGLPGASVETATKAMSHPQALVQCHNFFATHPQIRAEAAYDTAGSAKMVAESRDKSALAIASKRAGELYGLDILKENLADEEWNITRFFCIAHENN,not soluble
3,MGSDKIHHHHHHMLTQDQDQKQRNWKPIIKAFEAVLGTNGVVQRREELITYECDGLTSYRQRPAVAVLPRTTEQVAAVVKICNQYAVPFIARGSGTGLSGGALPSEDSVLIVTSLMRQILNVDLDNQRIVVQPGVINSWVTQTVSGAGFYYAPDPSSQIICSIGGNVAENSGGVHCLKYGVTTNHVLGLKIVTPEGEIVDLGGQIPEAPGYDLTGIFVGSEGTLGIATEITLRILKSAESICVLLADFTSVEAAGATVSDIISAGIIPGGMEMMDNVSINAVEDVVATNCYPRDATAILLVEIDGLDVEVAVNKQRVTDICQQNGARSVTSASDPETRLKLWKGRKAAFAAAGHLSPDYYVQDGVIPRTQLPYVLQEIEALSQKFGYPIANVFHAGDGNLHPLILFDNSISGALEKVEELGGEILKLCVRVGGSISGEHGIGADKKCYMPDMFSDVDLETMQWIRQVFNPQGLANPGKIFPTPRTCGEAANAIKNQHFEGVERF,not soluble
4,MAHQTGIHATEELKEFFAKARAGSVRLIKVVIEDEQLVLGASQEPVGRWDQDYDRAVLPLLDAQQPCYLLYRLDSQNAQGFEWLFLAWSPDNSPVRLKMLYAATRATVKKEFGGGHIKDELFGTVKDDLSFAGYQKHLSSCAAPAPLTSAERELQQIRINEVKTEISVESKHQTLQGLAFPLQPEAQRALQQLKQKMVNYIQMKLDLERETIELVHTEPTDVAQLPSRVPRDAARYHFFLYKHTHEGDPLESVVFIYSMPGYKCSIKERMLYSSCKSRLLDSVEQDFHLEIAKKIEIGDGAELTAEFLYDEVHPKQHAFKQAFAKPKGPGGKRGHKRLIRGPGENGDDS,soluble
5,MAHHHHHHMARSLQDPRLSFYCEQYDHIAHRMNHYVLQFYFEDRTVEIREVTKNRLHLKRAHFPHLNRDDFKVGSSLSLLGGVIKLTAYADEVTRELCGERGEVTAVMFGEQLLPQLGRCLAVLTEECGFVALEMQMAWLPVETAAAYGVPPDLVEGRIVVVKCANTNALQRGIDFMARMPGARAAESVEEVGRWEQIVEKAKEQPVAILGDPNSTVVIIKPHALQKLAGGVIVQQLIDAGLEISGISLTNMTSQQANELLKPYKGVLPDFPDTMRSLMGTVWVLQFVSLDEGVDVVSVAREVCGPFDPVIAKELRPTSIRARFGVDRAHNAVHCCDLHEEGPLYSNFFFRPEDVDE,not soluble
6,MQPELTKTPANFPLSPLGAVVILGDIPNPELLAIPLAPTPSTMFGPRGACLVAETGALWVSDTGHHRLLGWRKLPTTDSQPADWVIGQPDFYHEGQNAKGTPGRTTVSVPTGICVCGGGLAIADAWNHRVLIWHKIPEDSNVPADLVLGQRNFSENEPNRGKQSPDANTMHWPYGVAYHQGKLFVADTGNRRLLIWQQLPTENGQPADIVLGQPDMISRNENGGGSPTAGSMRWCHDIAFWDDNLVVTDAGNNRVMIWQGIPTENNAPCAVVLGQKSFDLVEMNQGVYFPSAGSLSMPYGVGATEDWLMVADTANSRLLGWRKRESILLLQGAIADGIIGQNSFQSKSENRHFGLPTRDSLNWCYGVKVCGSTAVISDSGNNRVLLWRFLLEHHHHHH,not soluble
7,MGSDKIHHHHHHMQKHNIKRDCCKLLYLLICNSLFYRRSIMGVKVVKDLVYSYIEIDESVQKLIDTASFQRLKRIKQLSSSYIFPSTNHTRYEHSIGVMHLACNFFEVLEKDFRKYGLTEDRISYLRLHIKLAGLLHDVGHPPFSHLGEKFLDKNEIIACIKNEYSHLVDVDKTFYNNGRLIGKEHELLSCYCILRKFYKILKEEIDKNIDVAFICRCIIGNTYPDSENWDKNICVRIISSDSIDVDKLDYLTRDNHMTGEIAPKMDIKRLLACLTITENKELKYVAKAIPAVQTVVDSRDILYLWVYHHHISIYTDYIIGRILKRCMTLYDEHRGQALEEMNREEYFSPKAITDYLITDDDIYSHLRKIYVLSLEGKVDDFNTIIIKQIFERDFLKPLWKTIYEYKDFEKNLVDKKIIKSYDELEDILKNEKNIEDITNTLLKKLNLKEGEVFIITKYNKFYNSNKEAPISLLLNGEERKLSDLLPQKEFGKFHTMAFFVFVPKKYKKEAKEIVIEELQKISQT,not soluble
8,MSLKTLAFDTSNKTLSLAILDDETLLADMTLNIQKKHSVSLMPAIDFLMTCTDLKPQDLERIVVAKGPGSYTGLRVAVATAKTLAYSLNIALVGISSLYALAASTCKQYPNTLVVPLIDARRQNAYVGYYRQGKSVMPQAHASLEVIIEQLVEEGQLIFVGETAPFAEKIQKKLPQAILLPTLPSAYECGLLGQSLAPENVDAFVPQYLKRVEAEENWLKDNEIKDDSHYVKRIEGHHHHHH,soluble
9,MGHHHHHHSHMLWECKQLGAHSPSTLLTTLMFFNTKYFLLKTVDQHMKLAFSKVLRQTKKNPSNPKDKSTSIRYLKALGIHQTGQKVTDDMYAEQTENPENPLRCPIKLYDFYLFKCPQSVKGRNDTFYLTPEPVVAPNSPIWYSVQPISREQMGQMLTRILVIREIQEAIAVANASTMH,not soluble
10,MASTSKPAASTTAIKKYYFYVLLCADQTLYGGFTDNLQRRLATHNAGKGAKYTRVRSRRPLQLIYHETFTDKSSALKAEYAFKHQSRAAKLKYLSAHDVKILEHHHHHH,not soluble
11,QVQLQQSGAELVRPGVSVKISCKGSGYTFTDYGMHWVKQSHAKSLEWIGIISTYSGDASYNQKFKGKATMTVDKSSSTAYMELARLTSEDSAIYYCARSSTWYYFDYWGQGTTLTVSSAKTTAPSVYPLAPVCGDTTGSSVTLGCLVKGYFPEPVTLTWNSGSLSSGVHTFPAVLQSDLYTLSSSVTVTSSTWPSQSITCNVAHPASSTKVDKKIEPR,soluble
12,AMSYTPGQPVTAVVQRVEIHKLRQGENLILGFSIGGGIDQDPSQNPFSEDKTDKGIYVTRVSEGGPAEIAGLQIGDKIMQVNGWDMTMVTHDQARKRLTKRSEEVVRLLVTRQ,soluble
13,MEDYIKNWNKIISNCSFDNTYKMAWAKAIVETAISKDIDSALIISFEEIAELFLKYYWNQTIYFNLTQGSSLKKIPEALKYTKNLIDLYYAKKGDYFPQRYEKIIFEDFGIESEKNKTIKKIVKTLGQDVSWRFMNLSGETYPLYELVENQVVLSLENAKLLKKYSDFLFPMINYRWTQMLESFNHSPRISSKVRAIDEDSIKKRNNLNKFREFLDLEFSDNKRYCFYCGKEIVDDDLTIDHVIPWSFMYSDDIWNLVYCHRSENSSKSNRIPEETDVKALECRNKLLLEKLTENKISSKRVDELQLAIEKDYVKKFWISSRGLEHHHHHH,not soluble
14,MKKIQTPNAKGEVRIIAGLWRGRKLPVLNSEGLRPTGDRVKETLFNWLMPYIHQSECLDGFAGSGSLGFEALSRQAKKVTFLELDKTVANQLKKNLQTLKCSSEQAEVINQSSLDFLKQPQNQPHFDVVFLDPPFHFNLAEQAISLLCENNWLKPNALIYVETEKDKPLITPENWTLLKEKTTGIVSYRLYQNLEHHHHHH,soluble
15,GPGSMEFSGSTLSVVEVEHTVRQLRPFPLQDIGTAEWKNQREAVERLNMCTHSNAVLKKDDTVKAFLIEHEKLPVLLHELLVMEVWRQRVLPLIKDQIVQHPAGIYMYVQYEMVLLNLFECIAFHEEVVVALDEDVLELIDYCWRQASRLFAEQNVNEVQSKPTARDVSNAANTVEEVLKSADRQMLHAIYQRAMASLSILWFIIDRLNQLPLAASNSVLVKNDLILGLTEVMLLQPWLRRSSEATQKFFNGEFKDIPRADVLLVCTPEAHTWFSLHKLLCDPECRRRYSYTQSKKELILRIRHFLNDTLVDQIPALASLQRALEELSFLQPPSGTEEKFKSTLTIEQVPRIMTLVEVERKGSWDDLASTLRAMLQDPSVRNEDAMRLSRIFDEMFSDQLK,not soluble
16,IFEDEEDQITKVDSLKKEGNNFFANGEFEKANEKYQEAIASCPPTSTEVQSILLSNSAAALIKLRKWESAVEAASKSIEIGATNEKALERRAFAYSNMSEKYENSIEDYKQLQESLPKRRVELDRKIAEINEKINNRNEAMKADVMEKLKGFGNFCLSPFGLSTDSFEMVPNGNGGFSVQMKGATNKQEGAS,not soluble
17,MRKSRLSQHKQNKLIELFVAGVTARTASKLVNVNKNTATITFIDYAYSFIKQAHIWKCLKAKLKPMKAISAVLEKANVVAVLQGKSQYSGFSNEMQGLYRRCS,not soluble
18,MGSDKIHHHHHHMAKNKTAYVCNECGQDFPRWQGQCSACQEWNTITEVRLGAASPGRSTKFVGYAGASSNEVKTLDQIDLNAMPRILSHFGELDRVLGGGIVPGSAILIGGHPGAGKSTLLLQTLCHLAEQMPALYVTGEESLQQVAMRAHRLGLPTNKLRMLSETSVEQICEVALKELPKVIVVDSIQVMHMSDVASSPGSVSQVRESASYLTRFAKENGIAVIMVGHVTKDGSLAGPKVLEHCIDCSVMFEGDSDSRYRTLRSHKNRFGAINELGVFAMTERGLKEVANPSAIFLSRGEEESSGSLVMVVWEGTRPLLVELQVLVDNSAMSNPRRVAVGMDANRLAMLLAVMHRHGGLQMSDQDVFVNVVGGVKVTETSADLTLLLAMVSSFRGDILPSDLVAFGEVGLSGEIRPVPNGQERLIEAAKHGFKRAIVPKANVPKKPPAGMEVVGVSKLSEALEAI,not soluble
19,MTVRALLTPEIAPRMGIVLFRPGSELMPLFMQGRVLLEPEPERYSSFASGAVPAASQPLADDPAVRAVFRNEAVIRRAGGVECLESWLLREKGCQWPHSDWHSENMTTMRHAPGAIRLCWHCDNQLRDQFTERLESMATDNCARWVLSVVRRDLGFDDSHVVTMPELCWWLVRNDLADALPESAARKALRLPKPVVPSVTRESDLVPSVPATSIIQDKAKKVLALKVDPESPESFMLRPKRRRWVNEKYTRWVKTQPCACCGKPADDPHHLIGHGQGGMGTKAHDLFVLPLCRKHHDELHADTVTFEEKYGSQLELIFRFIDRALAIGVLA,not soluble
20,AFVVTDNCIKCKYTDCVEVCPVDCFYEGPNFLVIHPDECIDDALCEPECPAQAIFSEDEVPEDMQEFIQLNAELAEVWPNITEKKDPLPDAEDWDGVKGKLQHLER,soluble
21,MTTSQMIADFTTLAIQAGGWMELDRLYLQNRLLSMIGEQELGEVDIRPVATPAADLAEQLCQVASANQLVKTEQQKEQFMVQLMDLLTPPPSVVNAFFAQHYAKEPQEATEYFYQLCQKNGTVIEQEEPVVFSTVYGDFLANKVHSEASKATLSAQSYPRCEWCMATEGYQGSQQFPATTNHRVIRMNLDGESWGFSFVKQAQYQQQGVIAFEKHQSAKRSIKTFQQLLKIVEVFPHYFAGIDADFEQNEHVYYQTGLQQFPLAEASISEYVELANYPLINAGMVNWPVETFRLEGPNASEVAQAANDIFEQWQMLKLPTDEIQIVARRKELLYVMDLIFSRPQAKPSLTLAEVQGLTTWNNQKTQALETVASAYQQRLKEASAFAETSEGKAAFLAMVAPVTH,not soluble
